{"source": "paper PMC4739766", "about": "(eLife, 2015)", "molecules": {"B1": {"name": "human p75^NTR death domain (330–427), P08138 330-427 (domain or fragment)", "chain": "KGDGGLYSSLPPAKREEVEKLLNGSAGDTWRHLAGELGYQPEHIDSFTHEACPVRALLASWATQDSATLDALLAALRRIQRADLVESLCSESTATSPV"}, "B2": {"name": "p75^NTR DD tagged with EGFP(A206K) in its C-terminus (domain or fragment)", "chain": "B1 chain", "modifications": "here or on the partner: C-terminal EGFP(A206K) carrier left out; limits of this fusion are not given, so the paper's own DD construct (330-427) is used / C-terminal EGFP(A206K) carrier left out; limits of this fusion are n"}, "B3": {"name": "human p75^NTR death domain (330–427) (domain or fragment, UniProt P08138 330-427, looked up)", "chain": "B1 chain", "notes": "p75 neurotrophin receptor (NGFR, TNFRSF16), human, death domain, residues 330-427; 15N- or 13C,15N-labelled in some NMR samples; Monomer or dimer depending on the buffer; also called p75^NTR DD; DD; source: E. coli SoluBL21 (DE3), purified (Ni-NTA, gel filtration Superdex 75 and/or ion exchange)"}}, "key": {"[1]": {"target": "human p75^NTR death domain (330–427) (human) (UniProt P08138)", "experiment": "SPR; p75NTR DD-His captured on NTA sensor chip via Ni2+; BIAcore T200, 22°C; 10 mM HEPES, 50 mM NaCl, 0.005% Surfactant P20, 0.02% BSA, pH 7.0; kinetic analysis, one binding site model"}, "RhoA (Homo sapiens)": {"target": "RhoA (Homo sapiens) (UniProt P61586)", "sequence (P61586 1-190)": "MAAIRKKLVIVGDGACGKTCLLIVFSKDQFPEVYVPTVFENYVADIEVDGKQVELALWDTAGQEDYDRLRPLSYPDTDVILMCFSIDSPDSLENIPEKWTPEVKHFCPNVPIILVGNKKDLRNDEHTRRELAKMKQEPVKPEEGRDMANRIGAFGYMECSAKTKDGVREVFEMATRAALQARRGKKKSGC", "conditions": "cited from earlier work"}, "[2]": {"target": "T1, human p75^NTR death domain (330–427) (human), P08138", "T1 chain": "B1 chain", "experiment": "dynamic light scattering; p75NTR DD ~0.2 mM in phosphate buffer, pH 7.0, 22°C; apparent hydrodynamic radius", "conditions": "remark: other sources report otherwise"}, "[3]": {"target": "T2, p75^NTR DD tagged with EGFP(A206K) in its C-terminus (human)", "T2 chain": "B1 chain", "experiment": "FRET or BRET; homo-FRET fluorescence anisotropy of p75NTR DD-EGFP diluted serially in 50 mM phosphate buffer pH 7.0, room temperature; fit to a monomer-dimer equilibrium; apparent; dimer to monomers", "conditions": "remark: other sources report otherwise"}, "human RhoGDI (2–204)": {"target": "T3, human RhoGDI (2–204) (human, UniProt P52565 2-204)", "T3 construct": "15N- or 13C,15N-labelled in some NMR samples; source: E. coli SoluBL21 (DE3), purified (Ni-NTA, gel filtration Superdex 75 and/or ion exchange)", "T3 sequence (looked up)": "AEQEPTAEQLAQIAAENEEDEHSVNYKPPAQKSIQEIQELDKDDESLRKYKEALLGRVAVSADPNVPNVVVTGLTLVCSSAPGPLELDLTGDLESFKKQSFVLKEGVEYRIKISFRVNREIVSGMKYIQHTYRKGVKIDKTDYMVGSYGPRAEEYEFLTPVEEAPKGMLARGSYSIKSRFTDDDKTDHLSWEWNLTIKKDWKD", "experiment": "SPR; p75NTR DD-His captured on NTA sensor chip via Ni2+; BIAcore T200, 22°C; 10 mM HEPES, 50 mM NaCl, 0.005% Surfactant P20, 0.02% BSA, pH 7.0; kinetic analysis, one binding site model", "conditions": "both partners purified"}, "[4]": {"target": "T4, human RIP2 CARD (434–539) (human, UniProt O43353 434-539)", "T4 construct": "RIP2 kinase, human, caspase recruitment domain with C-terminal tail, residues 434-539; The results speak of a C-terminal tail Leu524-Met540 and of 107 amino acids, the methods of residues 434-539; also called RIP2 CARD (including C-terminal tail); source: E. coli SoluBL21 (DE3), purified (Ni-NTA, gel filtration Superdex 75 and/or ion exchange)", "T4 sequence (O43353 434-539)": "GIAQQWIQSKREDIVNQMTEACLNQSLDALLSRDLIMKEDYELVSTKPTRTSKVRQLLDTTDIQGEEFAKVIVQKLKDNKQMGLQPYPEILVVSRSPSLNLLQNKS", "experiment": "SPR; p75NTR DD-His captured on NTA sensor chip via Ni2+; BIAcore T200, 22°C; 10 mM HEPES, 50 mM NaCl, 0.005% Surfactant P20, 0.02% BSA, pH 7.0; kinetic analysis, one binding site model", "conditions": "both partners purified"}}, "data": [{"molecule": "RIP2 CARD ΔC mutant lacking the C-terminal tail (domain or fragment)", "values": [{"measurement": "Kd", "setting": "[1]", "result": 58.7, "unit": "nM"}]}, {"molecule": "RhoGDI (from UniProt P52565)", "values": [{"measurement": "Kd", "setting": "RhoA (Homo sapiens)", "result": 170, "unit": "nM"}]}, {"molecule": "B1", "values": [{"measurement": "stoichiometry N", "setting": "[2]", "result": 2}]}, {"molecule": "B2", "values": [{"measurement": "Kd", "setting": "[3]", "result": 49000, "unit": "nM"}]}, {"molecule": "B3", "values": [{"measurement": "Kd", "setting": "human RhoGDI (2–204)", "result": "827 ± 338", "unit": "nM"}, {"measurement": "koff", "setting": "human RhoGDI (2–204)", "result": 0.05, "unit": "s⁻¹"}, {"measurement": "kon", "setting": "human RhoGDI (2–204)", "result": "60000 ± 10000", "unit": "M⁻¹ s⁻¹"}, {"measurement": "Kd", "setting": "[4]", "result": "4.67 ± 0.7", "unit": "nM"}, {"measurement": "koff", "setting": "[4]", "result": 0.00332, "unit": "s⁻¹"}, {"measurement": "kon", "setting": "[4]", "result": "720000 ± 340000", "unit": "M⁻¹ s⁻¹"}]}]}
